{"source": "patent US20250388633A1", "biological_target": "growth factor receptors", "assay": "cell-based or functional assay", "data": [{"binder": "SIPKASSTPTELSPINMLYF", "note": "[SEQ ID NO: 54]", "values": [{"measurement": "p-Smad1/5/8 (%) (quantification of western blots of phospho-smad1/5/8)", "result": 32, "unit": "%"}]}, {"binder": "ASASPSSVSQDLSSLSILFF", "note": "[SEQ ID NO: 58]", "values": [{"measurement": "p-Smad1/5/8 (%) (quantification of western blots of phospho-smad1/5/8)", "result": 37, "unit": "%"}]}, {"binder": "NDEGLESVPTEERSVKVAKV", "note": "[SEQ ID NO: 63]", "values": [{"measurement": "p-Smad1/5/8 (%) (quantification of western blots of phospho-smad1/5/8)", "result": 34, "unit": "%"}]}, {"binder": "SSVKSQPSRVHHSPISILFI", "note": "[SEQ ID NO: 57]", "values": [{"measurement": "p-Smad1/5/8 (%) (quantification of western blots of phospho-smad1/5/8)", "result": 41, "unit": "%"}]}, {"binder": "NDEGLESVPTEESAISMLYL", "note": "[SEQ ID NO: 56]", "values": [{"measurement": "p-Smad1/5/8 (%) (quantification of western blots of phospho-smad1/5/8)", "result": 28, "unit": "%"}]}, {"binder": "SSVKSQPSRVHHKPLSMLYV", "note": "[SEQ ID NO: 62]", "values": [{"measurement": "p-Smad1/5/8 (%) (quantification of western blots of phospho-smad1/5/8)", "result": 31, "unit": "%"}]}, {"binder": "VVPKPSSAPTQLEPISILYL", "note": "[SEQ ID NO: 59]", "values": [{"measurement": "p-Smad1/5/8 (%) (quantification of western blots of phospho-smad1/5/8)", "result": 29, "unit": "%"}]}]}
